Measured values published in patent publication CN112048019A.

What was measured:
[1] = molecular target: CD47蛋白 (analyte in the ForteBio assay) (human) (UniProt Q08722); assay: BLI (ForteBio), antibody captured on Protein A sensor, CD47 protein in solution at 6 concentrations
重组CD47-Fc融合蛋白 (human) = 重组CD47-Fc融合蛋白 (human) (UniProt Q08722); assay: competition ELISA: CD47-Fc coated, antibody blocks binding of SIRPα-His, anti-His-HRP detection
[2] = molecular target: CD47 on human cells (Jurkat target cells; human peripheral blood erythrocytes) (human) (UniProt Q08722); assay: cell-based or functional assay

- Kd [1]: 7.16 nM
- koff [1]: 0.000463 s⁻¹
- kon [1]: 64700 M⁻¹ s⁻¹
- EC50 (重组CD47-Fc融合蛋白 (human)): 143 nM
- 吞噬率/% (macrophage phagocytosis of CFSE-labelled Jurkat cells, flow cytometry) [2]: 18%
B1: 市售抗体B6H12 (antibody, from another filing, V domains shown)
VH: EVQLVESGGDLVKPGGSLKLSCAASGFTFSGYGMSWVRQTPDKRLEWVATITSGGTYTYYPDSVKGRFTISRDNAKNTLYLQIDSLKSEDTAIYFCARSLAGNAMDYWGQGTSVTVSS
VL: DIVMTQSPATLSVTPGDRVSLSCRASQTISDYLHWYQQKSHESPRLLIKFASQSISGIPSRFSGSGSGSDFTLSINSVEPEDVGVYYCQNGHGFPRTFGGGTKLEIK
